Assay results: patent US20250122303A1 (HUMMINGBIRD BIOSCIENCE PTE, published 2025)
Substitutions are numbered along the chain they refer to.

What was measured:
His-tagged human HER3 [1] = target: T1, His-tagged human HER3 (human, UniProt P21860 20-643); test: BLI (Octet QK384), antibody on anti-human IgG capture tips, His-tagged human HER3 in solution, global one-site fit
T1 construct: Antigen of the BLI experiments and of the HER2-Fc dimerisation ELISA; also called HER3 His; not shown: His tag
Method in brief: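 Anti-HER3 IgG1 antibodies (25 nM) captured on anti-human IgG tips; binding measured by BLI at 25 °C with 1000 rpm agitation.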

His-tagged human HER3 [2] = target: T1, His-tagged human HER3; test: BLI (Octet QK384), antibody on anti-human IgG capture tips, His-tagged human HER3 35-278 nM, global 1:1 fit
Experimental: (§1) The anti-HER3 antibody clones in IgG1 format were analysed for binding affinity to human HER3. Bio-Layer Interferometry (BLI) experiments were performed using the Octet QK384 system (ForteBio). anti-Human IgG Capture (AHC) Octet sensor tips (Pall ForteBio, USA) were used to anti-HER3 antibodies (25 nM). All measurements were performed at 25° C. with agitation at 1000 rpm. […] Sensograms were referenced for buffer effects and then fitted using the Octet QK384 user software (Pall ForteBio, USA). Kinetic responses were subjected to a global fitting using a one site binding model to obtain values for association (Kₒₙ), dissociation (Koff) rate constants and the equilibrium dissociation constant (KD). Only curves that could be reliably fitted with the software (R²>0.90) were included in the analysis.

His-tagged human HER3 [3] = target: T1, His-tagged human HER3; test: BLI (Octet QK384), antibody on anti-human IgG capture tips, His-tagged human HER3 in solution, global 1:1 fit, R^2 = 0.9955, kon Error 5.62E+03; Response -0.0012 / 0.1507 / 0.3396 / 0.4384 at 35 / 69 / 139 / 278 nM
Experimental: as §1

His-tagged human HER3 [4] = target: T1, His-tagged human HER3; test: BLI (Octet QK384), antibody on anti-human IgG capture tips, His-tagged human HER3 35-278 nM, global 1:1 fit; kdis Error 1.27E-04
Experimental: as §1

His-tagged human HER3 [5] = target: T1, His-tagged human HER3; test: BLI (Octet QK384), antibody on anti-human IgG capture tips, His-tagged human HER3 in solution, global 1:1 fit, R^2 = 0.9957, kon Error 3.75E+03; Response 0.0006 / 0.0697 / 0.1929 / 0.3524 at 35 / 69 / 139 / 278 nM
Experimental: as §1

His-tagged human HER3 [6] = target: T1, His-tagged human HER3; test: BLI (Octet QK384), antibody on anti-human IgG capture tips, His-tagged human HER3 35-278 nM, global 1:1 fit; kdis Error 1.17E-04
Experimental: as §1

His-tagged human HER3 [7] = target: T1, His-tagged human HER3; test: BLI (Octet QK384), antibody on anti-human IgG capture tips, His-tagged human HER3 in solution, global 1:1 fit, R^2 = 0.9949, kon Error 6.34E+03; Response 0.0096 / 0.1318 / 0.3036 / 0.3995 at 35 / 69 / 139 / 278 nM
Experimental: as §1

His-tagged human HER3 [8] = target: T1, His-tagged human HER3; test: BLI (Octet QK384), antibody captured on AHC sensors, His-tagged human HER3 in solution, without NRG1
[9] = target: T2, human HER3 expressed on cells (HEK293 HER3 O/E cells) (human, UniProt P21860 20-1342); test: flow cytometry on HEK293T HER3 O/E cells, 10 ug antibody as printed, FITC-conjugated anti-Fc secondary
T2 construct: Also used here for HER3 on U2OS cells of the PathHunter kit and on cancer cell lines; also called HEK293 cells transfected with vector encoding human HER3; human HER3-expressing cells
Experimental: The cells were washed with buffer (PBS with 2 mM EDTA and 0.5% BSA) and resuspended in FITC-conjugated anti-FC antibody (Invitrogen, USA) at 10 μg/ml for 20 min at 4° C. Cells were washed again and resuspended in 200 μL of FACS flow buffer (PBS with 5 mM EDTA) for flow cytometric analysis using MACSQuant 10 (Miltenyi Biotec, Germany). Unstained WT and transfected HEK293 cells were included in the analysis as negative controls. After acquisition, all raw data were analyzed using Flowlogic software. Cells were gated using forward and side scatter profile percentage of positive cells was determined for native and overexpressing cell populations.

[10] = target: T2, human HER3 expressed on cells (HEK293 …); test: flow cytometry, HEK293 cells overexpressing human HER3, 20 ug/ml antibody, FITC anti-Fc secondary; same antibody on WT HEK293: 1.91
[11] = target: T2, human HER3 expressed on cells (HEK293 …); test: flow cytometry, HEK293 cells overexpressing human HER3, 20 ug/ml antibody, FITC anti-Fc secondary; same antibody on WT HEK293: 8.15
[12] = target: T3, His-tagged FcγRIIIa (V158) (human, UniProt P08637 17-208); test: BLI (Octet QK384), His-tagged FcgRIIIa (V158) on anti-Penta-HIS tips, antibody 500 nM to 15.6 nM in solution, global 1:1 fit
T3 construct: not shown: His tag
Experimental: All measurements were performed at 25° C. with agitation at 1000 rpm. […] Sensograms were referenced for buffer effects and then fitted using the Octet QK384 user software (Pall ForteBio, USA). Kinetic responses were subjected to a global fitting using a one site binding model to obtain values for association (Kₒₙ), dissociation (Koff) rate constants and the equilibrium dissociation constant (KD). Only curves that could be reliably fitted with the software (R²>0.90) were included in the analysis.

B1: anti-HER3 clone 10D1_c75 IgG1 (antibody, V domains shown)
VH: DVQLQEWGAGLLKPSETLSLTCAVTGYSITSGYSWHWIRQFPGNGLEWIGSIHYSGGTNYNPTLKSRITISRDTSKNQFSLKLSSVTAADTAVYFCARMTTAPRYPFDYWGQGTLVTVSS
VL: DIVMTQSPSSLSASVGDLVTITCKASQIVGSNVAWYQMKPGKSPKPLIYSASYLYFGVPSRFSGSGSGTDFTLTISSLQPEDVAEYFCQQYSSHPLTFGPGTKVEIKR
notes: Humanised 10D1 variant, IgG1/kappa
Binder B1 has a Kd (His-tagged human HER3 [1]) of under 0.001 nM, a koff (His-tagged human HER3 [2]) of under 1e-07 s⁻¹ and a kon (His-tagged human HER3 [3]) of 163000 M⁻¹ s⁻¹.

B2: anti-HER3 clone 10D1_c85o1 IgG1 (antibody, V domains shown)
VH: B1 VH with N44K, H53R, T63S, S84G, M99E
VL: B1 VL with L18R, M38Q, S52R, L54Q, F56S, S60F, E85T, F87Y
notes: Humanised 10D1 variant, IgG1/kappa; also called 10D1_c8501
B2 showed a Kd (His-tagged human HER3 [1]) of 18.2 nM, a koff (His-tagged human HER3 [4]) of 0.0017 s⁻¹ and a kon (His-tagged human HER3 [5]) of 93600 M⁻¹ s⁻¹.

B3: anti-HER3 clone 10D1_c77 IgG1 (antibody, V domains shown)
VH: B1 VH with T63S
VL: B1 VL with D1V, L18R, S31P, M38Q, L54G, F56S, G57D, S93T
notes: as for B1
B3 showed a Kd (His-tagged human HER3 [1]) of 1.93 nM, a koff (His-tagged human HER3 [6]) of 0.000346 s⁻¹ and a kon (His-tagged human HER3 [7]) of 179000 M⁻¹ s⁻¹.

B4: LJM716 (antibody, V domains shown)
VH: EVQLLESGGGLVQPGGSLRLSCAASGFTFSSYAMSWVRQAPGKGLEWVSAINSQGKSTYYADSVKGRFTISRDNSKNTLYLQMNSLRAEDTAVYYCARWGDEGFDIWGQGTLVTVSS
VL: DIQMTQSPSSLSASVGDRVTITCRASQGISNWLAWYQQKPGKAPKLLIYGASSLQSGVPSRFSGSGSGTDFTLTISSLQPEDFATYYCQQYSSFPTTFGQGTKVEIK
B4 showed a Kd (His-tagged human HER3 [8]) of under 0.001 nM, a koff (His-tagged human HER3 [8]) of under 1e-07 s⁻¹ and a kon (His-tagged human HER3 [8]) of 79800 M⁻¹ s⁻¹. For the same binder, the “% Parent (HER3 positive)” value [9] was 74.4%, the “% Parent (HER3 positive)” value [10] was 99.5% and the “% Parent (HE3 positive)” value [11] was 98.7%.

B5: 10D1 comprising GASDALIE and LCKC substitutions in CH2 region (antibody, human IgG1, kappa)
heavy: DVQLQESGPDLVKPSQSLSLTCTVTGYSITSGYSWHWIRQFPGNKLEWMGSIHYSGGTNYNPSLKSRISITRDTSKNQFFLQLNSVTTEDTATYFCARMTTAPRYPFDYWGQGTTLTVSSASTKGPSVFPLAPSSKSTSGGTAALGCLVKDYFPEPVTVSWNSGALTSGVHTFPAVLQSSGLYSLSSVVTVPSSSLGTQTYICNVNHKPSNTKVDKKVEPKSCDKTHTCPPCPAPELLAGPDVFCFPPKPKDTLMISRTPEVTCVVVDVSHEDPEVKFNWYVDGVEVHNAKTKPREEQYNSTYRVVSVLTVLHQDWLNGKEYKCKVSNKALPLPEECTISKAKGQPREPQVYTLPPSRDELTKNQVSLTCLVKGFYPSDIAVEWESNGQPENNYKTTPPVLDSDGSFFLYSKLTVDKSRWQQGNVFSCSVMHEALHNHYTQKSLSLSPGK
light: DIVMTQSQKFMSTSVGDRVSVTCKASQIVGSNVAWYQQKPGQSPKPLIYSASYRYSGVPDRFTASGSGTDFTLTITNVQSEDLAEYFCQQYSSHPLTFGAGTKLELKRTVAAPSVFIFPPSDEQLKSGTASVVCLLNNFYPREAKVQWKVDNALQSGNSQESVTEQDSKDSTYSLSSTLTLSKADYEKHKVYACEVTHQGLSSPVTKSFNRGEC
notes: also called Fc engineered 10D1 variant
For B5, the Kd [12] was 34 nM.
